Reference: patent US20110230643A1

Target: Toll-like receptor 5 (TLR5), constitutively expressed on Caco-2 cells (UniProt O60602)
Experiment: cell-based or functional assay

Sequence of UniProt O60602 (O60602 21-858 limits assumed): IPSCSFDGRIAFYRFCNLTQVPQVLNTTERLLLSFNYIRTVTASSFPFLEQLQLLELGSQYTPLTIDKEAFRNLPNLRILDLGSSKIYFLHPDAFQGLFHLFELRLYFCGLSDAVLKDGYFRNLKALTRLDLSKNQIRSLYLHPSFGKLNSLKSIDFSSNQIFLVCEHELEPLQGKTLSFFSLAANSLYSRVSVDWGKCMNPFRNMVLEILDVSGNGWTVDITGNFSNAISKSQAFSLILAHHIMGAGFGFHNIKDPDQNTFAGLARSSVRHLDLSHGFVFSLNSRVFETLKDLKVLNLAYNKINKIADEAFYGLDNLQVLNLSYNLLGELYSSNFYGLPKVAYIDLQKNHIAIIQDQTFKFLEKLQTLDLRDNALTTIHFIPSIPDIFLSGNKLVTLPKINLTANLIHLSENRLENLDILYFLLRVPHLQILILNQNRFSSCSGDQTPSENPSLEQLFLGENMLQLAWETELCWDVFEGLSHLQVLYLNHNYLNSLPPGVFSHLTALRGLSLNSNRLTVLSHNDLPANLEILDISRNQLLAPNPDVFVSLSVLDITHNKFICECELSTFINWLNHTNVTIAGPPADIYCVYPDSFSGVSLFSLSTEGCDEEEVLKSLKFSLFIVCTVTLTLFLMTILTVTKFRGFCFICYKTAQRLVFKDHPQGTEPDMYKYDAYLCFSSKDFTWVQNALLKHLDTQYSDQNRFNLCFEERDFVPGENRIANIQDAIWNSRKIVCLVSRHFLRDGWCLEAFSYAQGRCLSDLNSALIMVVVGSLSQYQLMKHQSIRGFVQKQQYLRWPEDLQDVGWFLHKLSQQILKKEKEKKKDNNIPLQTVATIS

flagellin protein FliC from Salmonella enterica J341, recombinant, with C-terminal 6-histidine tag (from UniProt P06177 1-505) (ligand)
dose at which the stimulating activity (IL-8 and MCP-1 release of Caco-2 cells) reached saturation: > 1000 ng/mL
